The results in this text go back to PMC6698841.

In assay [1] the target is Variant 1051 (control; L234A/L235A on both heavy chains) (human). Nature of the assay: SPR; ProteOn XPR36, 25 °C; 10 mM HEPES, 150 mM NaCl, 3.4 mM EDTA, 0.05% Tween 20, pH 7.4; trastuzumab variants captured (approx. 500 RU) on amine-coupled recombinant HER-2 (GLM chip); FcγRs injected as analyte, five concentrations in 3-fold dilution; Equilibrium Fit model, mean of two or three runs.

For assay [2], the target named is Variant 791 (trastuzumab with heterodimerising CH3 mutations only, no CH2 mutations) (human). The description is as above.
The target of assay [3] is Control Rituximab v1261 (anti-CD20 rituximab with heterodimerising CH3 mutations, no CH2 mutations) (human). Nature of the assay: SPR; ProteOn XPR36, 25 °C; 10 mM HEPES, 150 mM NaCl, 3.4 mM EDTA, 0.05% Tween 20, pH 7.4; rituximab variants captured on amine-coupled goat anti-human Fc; FcγRs injected as analyte, five concentrations in 3-fold dilution; Equilibrium Fit model; ratios against homodimeric trastuzumab WT. Background: Surface plasmon resonance follows binding to a sensor surface in real time, without labels.

Assay [4] has as its target Variant 791 (trastuzumab with heterodimerising CH3 mutations only, no CH2 mutations) (human). The assay is described as follows: SPR; ProteOn XPR36, 25 °C; 10 mM HEPES, 150 mM NaCl, 3.4 mM EDTA, 0.05% Tween 20, pH 7.4; trastuzumab variants captured (approx. 500 RU) on amine-coupled recombinant HER-2 (GLM chip); FcγRs injected as analyte, five concentrations in 3-fold dilution; Equilibrium Fit model, mean of two or three runs. The source holds these as a separate data set.

In assay [5] the target is Variant 1051 (control; L234A/L235A on both heavy chains) (human). The description is as above. This is another data set of the same source.
The target of assay [6] is Control Rituximab v1261 (anti-CD20 rituximab with heterodimerising CH3 mutations, no CH2 mutations) (human). Nature of the assay: SPR; ProteOn XPR36, 25 °C; 10 mM HEPES, 150 mM NaCl, 3.4 mM EDTA, 0.05% Tween 20, pH 7.4; rituximab variants captured on amine-coupled goat anti-human Fc; FcγRs injected as analyte, five concentrations in 3-fold dilution; Equilibrium Fit model; ratios against homodimeric trastuzumab WT. This is another data set of the same source.

Where two headings read alike, the source gives them in different places.

Chain of Control Rituximab v1261 (anti-CD20 rituximab with heterodimerising CH3 mutations, no CH2 mutations) (human) (heavy, as listed by the source, chain 1 of 2): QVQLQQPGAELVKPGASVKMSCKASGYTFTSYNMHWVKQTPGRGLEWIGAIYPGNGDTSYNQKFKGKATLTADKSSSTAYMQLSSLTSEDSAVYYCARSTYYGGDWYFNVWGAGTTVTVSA
Chain of Control Rituximab v1261 (anti-CD20 rituximab with heterodimerising CH3 mutations, no CH2 mutations) (human) (light, as listed by the source, chain 2 of 2): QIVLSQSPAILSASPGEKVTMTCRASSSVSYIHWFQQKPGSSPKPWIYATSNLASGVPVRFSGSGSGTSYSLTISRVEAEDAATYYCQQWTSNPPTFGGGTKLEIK

In the case of “FcγR 1a (CD64) (from UniProt P12314 16-374) (receptor)”, the Kamut/KaWT (WT: homodimeric trastuzumab) in assay [1] is 0.01.
In the case of “FcγR 2aH (from UniProt P12318 34-317) (receptor)”, the values for the Kamut/KaWT (WT: homodimeric trastuzumab) in assay [1], in assay [2] and in assay [3] were 0.06, 1.7 and 1.9, respectively.
On to “FcγR 2b (from UniProt P31994 43-310) (receptor)”, for which the Kamut/KaWT (WT: homodimeric trastuzumab) in assay [1] was found to be 0.52; in assay [3], 1.9.
The like results for “FcγR 3aF (from UniProt P08637 17-254) (receptor)” were, in that order, 0.29 and 1.4.

B1: FcγR 2aR, P12318 34-317 (receptor)
chain: QAAAPPKAVLKLEPPWINVLQEDSVTLTCQGARSPESDSIQWFHNGNLIPTHTQPSYRFKANNNDSGEYTCQTGQTSLSDPVHLTVLSEWLVLQTPHLEFQEGETIMLRCHSWKDKPLVKVTFFQNGKSQKFSRLDPTFSIPQANHSHSGDYHCTGNIGYTLFSSKPVTITVQVPSMGSSSPMG
modifications: not checked
Take B1: the values for the Kamut/KaWT (WT: homodimeric trastuzumab) in assay [4], in assay [5] and in assay [6] were 1.7, 0.06 and 1.5, respectively.
